Assay results: patent US7655420B2, “Methods to increase or decrease bone density” (Celltech R & D, Inc., priority 2002, dated 2010)
“Also recorded” adds a separate entry of the source.

Tests used:
Assay type in all cases: cell-based, human
[1] = system: mineralization (calcium deposition) in hMSC cells; assay: mineralization (calcium deposition) in hMSC cells; conditions: for mineralization (calcium deposition), increasing concentrations: hMSC cells, Osteoblast-Inducing media, protein added at 8 days, another 13 days
Description: FIG. 12B illustrates that human sclerostin decreases mineralization (calcium deposition) in hMSC cells in a dose-dependent manner. hMSC cells were plated in Osteoblast-Inducing media. Partially-purified sclerostin protein or proteins purified from Sf9 conditioned media (control) were added the next day. Cultures were maintained for 8 days, treated with sclerostin or control proteins and maintained for another 13 days before testing for mineralization. As illustrated, increasing concentrations of sclerostin give rise to diminished mineralization.
hMSC cells were plated in 96-well tissue culture dishes at a density of 10,000 cells/cm^2 in Osteoblast-Inducing medium. Partially purified preparations of baculovirus-expressed sclerostin protein were prepared in sterile PBS using NAP-5 columns prior to use. Human sclerostin protein (0 to 30 μg/ml) or an equal volume of Sf9 conditioned media (Control) was added to cultures of hMSC cells at various times after plating (1 day, 8 days, 15 days, or 21 days). The effects of sclerostin on osteoblastic differentiation were assessed by measuring alkaline phosphatase activity (ALP, determined in cell layers using DEAA buffer (Pierce) containing 0.5% NP-40 and 10 mM p-nitrophenylphosphate), synthesis of collagen type I (Prolagen C ELISA), and calcium deposition for mineralization (colorimetric assay of acid lysates of cell layers, Sigma).

[2] = system: osteoblastic markers; assay: RT-PCR of osteoblastic markers in differentiating hMSC cells treated with sclerostin; conditions: sclerostin 10 μg/ml, 40 hrs
Description: FIG. 14 illustrates that human sclerostin protein decreases expression of osteoblastic markers in cultures of differentiating hMSC cells. hMSC cells were plated in Osteoblast-Inducing media. After 3 days, partially purified sclerostin protein (10 μg/ml) or proteins purified from Sf9 conditioned media (control) were added. Cells were harvested after 40 hrs and RNA was prepared for RT-PCR analyses of osteoblastic markets.
To determine the effect of sclerostin protein on the expression of osteoblastic markers in cultures of differentiating hMSC cells, RNA was isolated after a 40-hr treatment and analyzed by RT-PCR (FIG. 14).

[3] = system: hMSC cells; assay: CellTiterGlo viability assay of hMSC cells; conditions: Osteoblast-Inducing media, increasing amounts of sclerostin, 1 week, versus control
Description: (§1) Human mesenchymal (hMSC) cells were plated in Osteoblast-inducing media (Biowhittaker's MSCGM medium supplemented with 100 nM dexamethasone, 50 μg/ml ascorbic acid, and 10 mM β-glycerophosphate) at a density of 10,000 cells/cm^2 in 96-well dishes.
For cell viability assays, cells were treated with a partially purified preparation of bacculovirus-expressed human sclerostin (0 to 20 μg/ml) or an equal volume of a protein preparation purified from Sf9 conditioned media (control) for 1 week. Sclerostin and control were refreshed upon media change. Cells were then lysed and processed using Promega's CellTiterGlo Luminescence Viability Assay.

[4] = system: caspase activity in hMSC cells; assay: apoptosis of hMSC cells by caspase activity (Homogeneous Caspase ELISA); conditions: for time after treatment for which caspase activity remained elevated: hMSC cells treated with sclerostin; for caspase activity: hMSC in osteoblast-inducing media, 20 μg/ml sclerostin or other protein, 24 hours
Description: as §1
For apoptosis assays, cells were treated with sclerostin or commercially available preparations of the BMP antagonists noggin, chordin, gremlin or twisted gastrulation (Tsg) for 24 hours prior to assay for caspase activity. In some experiments, cells were treated for various times with a partially purified preparation of baculovirus-expressed human sclerostin (0 to 30 μg/ml) or an equal volume of a protein preparation purified from Sf9 conditioned media (control) in the absence or presence of Calbiochem's caspase inhibitors. Cells were harvested and processed for apoptosis assays using the Homogeneous Caspase ELISA (Roche) or Cell Death (Histone-Associated DNA Fragmentation, Roche).

B1: sclerostin: partially purified baculovirus-expressed human sclerostin protein, SOST gene product (SEQ ID NO:3); also made with a FLAG tag (protein, listed as Homo sapiens)
chain: MQLPLALCLVCLLVHTAFRVVEGQGWQAFKNDATEIIPELGEYPEPPPELENNKTMNRAENGGRPPHHPFETKDVSEYSCRELHFTRYVTDGPCRSAKPVTELVCSGQCGPARLLPNAIGRGKWWRPSGPDFRCIPDRYRAQRVQLLCPGGEAPRARKVRLVASCKCKRLTRFHNQSELKDFGTEAARPQKGRKPRPRARSAKANQAELENAY
modifications: optional FLAG tag
[1]; hMSC cells treated with about 10 to 15 μg/ml of the protein, p<0.001 to control
  decrease of mineral deposition: about 50%
[1]; listed as Sclerostin
  mineralization (calcium deposition), increasing concentrations: decreased
[1]; listed as human sclerostin
  mineralization (calcium deposition), increasing concentrations: decreases
[2]
  RNA levels for osteoblast phenotypic markers PTHr, Type I collagen, BMP-2 and BMP-6: significantly reduced
  RNA levels of markers for adipocytes (PPARγ2) or undifferentiated mesenchymal cells (endoglin): not affected
[3]
  viability of hMSC cells: significantly reduced; also recorded: decreases the viability
[4]; listed as Sclerostin
  time after treatment for which caspase activity remained elevated: up to 72 hrs
  caspase activity: increased
[4]; listed as human sclerostin
  time after treatment for which caspase activity remained elevated: 72 h
[4]; hMSC cells, 24 hrs
  caspase activity, increasing amounts (dose-dependent): significantly elevated; also recorded: increased caspase activity
[4]
  caspase activity: significantly increased
